{"source": "paper PMC13227277", "about": "“Targeting CIRP and IL-6R-mediated microglial inflammation to improve outcomes in intracerebral hemorrhage” (Journal of Advanced Research, 2025)", "molecules": {"B1": {"name": "recombinant human CIRP (cold-inducible RNA-binding protein) (natural protein, UniProt Q14011 1-172, looked up)", "chain": "MASDEGKLFVGGLSFDTNEQSLEQVFSKYGQISEVVVVKDRETQRSRGFGFVTFENIDDAKDAMMAMNGKSVDGRQIRVDQAGKSSDNRSRGYRGGSAGGRGFFRGGRGRGRGFSRGGGDRGYGGNRFESRSGGYGGSRDYYSSRSQSGGYSDRSSGGSYRDSYDSYATHNE", "notes": "UniProtKB Q14011 is printed for the docking; also called rhCIRP; human CIRBP; source: recombinant"}}, "key": {"IL-6R": {"test_system": "IL-6R", "test": "Co-immunoprecipitation of CIRP and IL-6R", "type": "binding", "details": "Co-IP, n = 3", "quoted_text": "(§1) Cells were divided into control and test groups. For transfection, solution A (plasmid diluted in Opti-MEM) and solution B (Lipofectamine 2000, Life Technologies, USA, diluted in Opti-MEM) were mixed at a 1:2 plasmid-to-lipofectamine ratio. After 6 h, the medium was replaced with DMEM, and GFP fluorescence was observed 24–48 h post-transfection to assess efficiency. Cells were divided into PBS, IL-6R, and CIRP (1 μg/mL for 24 h) groups for further analysis.\nThe beads were washed twice with lysis buffer to remove unbound proteins. Bound proteins were eluted by boiling the beads in sample buffer at 95°C for 3 min and subjected to Western blot analysis."}, "STAT3": {"test_system": "STAT3", "test": "STAT3 phosphorylation following CIRP and IL-6R interaction, western blot", "type": "cell-based", "details": "n = 6", "quoted_text": "as §1\nCells were washed twice with PBS, lysed, and sonicated. After a 30-minute rest to ensure thorough lysis, the homogenate was centrifuged at 12,000 rpm at 4 °C for 15 min. The supernatant was collected for protein quantification using the BCA method. Samples were prepared at a concentration of 2 μg/μL, and 15 μL per well was loaded for gel electrophoresis. Proteins were transferred to membranes using a wet transfer method and blocked with 5 % non-fat milk. […] Membranes were incubated with primary antibodies overnight at 4 °C, followed by incubation with secondary antibodies (GAR-HRP, BIOSHARP; GAM-HRP, Jackson) at room temperature for 2 h. Membranes were washed three times with TBST and developed using a chemiluminescent substrate."}, "microglia": {"test_system": "microglia", "test": "IL-6 release from CIRP-stimulated microglia, ELISA (TCC vs TC)", "type": "cell-based, mouse", "details": "peptides 10 μM pre-treated 0.5 h, then rmCIRP 1 μg/mL 24 h, n = 3", "quoted_text": "To validate the effects of TCC and TC in vitro, microglial cells were pre-treated with the peptides (10 μM) for 0.5 h, followed by stimulation with recombinant mouse CIRP (rmCIRP, 1 μg/mL) for 24 h to establish an inflammation model.\nELISA was used to quantify CIRP, MD2, IL-6, and TNF-α concentrations in blood and cerebrospinal fluid samples. Samples were processed and stored under standardized conditions to preserve protein integrity. Each target protein was measured using commercial ELISA kits, following the manufacturer’s instructions: Mouse CIRBP ELISA Kit (CSB-EL005440MO, CUSABIO), Mouse TNF-α ELISA Kit (EK282, Lianke Bio), Mouse IL-6 ELISA Kit (CSB-E04639m, CUSABIO), and Rat TNF-α ELISA Kit (EK382, Lianke Bio).\nAfter disinfection with 75 % ethanol, the skin and skull were removed, and the brains were placed in ice-cold HBSS. The meninges were peeled off, the cortex was collected, and the hippocampus was discarded. Tissues were digested with 0.25 % trypsin at 37 °C for 12 min, centrifuged at 1200 rpm for 5 min, and resuspended in complete medium. The suspension was transferred to a T75 flask with 15 mL of complete medium. After 14 days, microglial cells were harvested by shaking the flask at 270–280 rpm for 30 min, and the supernatant was collected. […] CIRP (1 μg/mL for 24 h) was added to the microglia, which were divided into PBS, CIRP, and CIRP + TCC groups. […]"}, "neurons": {"test_system": "neurons", "test": "Neurons co-cultured with CIRP-treated microglial supernatant (CCK-8, immunofluorescence)", "type": "cell-based, mouse", "description": "Brain tissues were fixed in paraformaldehyde, dehydrated, and sectioned at 30 µm using a microtome (CM1900UV, Leica, Germany). Sections were floated onto glass slides and left overnight at room temperature. For cultured cells, after discarding the medium, cells were washed twice with PBS, fixed with precooled 4 % PFA at 4 °C for 10 min, and washed three times with PBS (10 min each) on a shaker. Cells were permeabilized with 0.3 % Triton X-100 in PBS for 20 min, blocked with 5 % donkey serum for 1 h, and incubated overnight at 4 °C with primary antibodies (Iba-1, Rabbit polyclonal, Wako; NeuN, Millipore; GFAP, CST; MBP, Abcam; SMI32, Millipore). The next day, sections were brought to room temperature, washed three times with PBST (PBS + Tween-20), and incubated with secondary antibodies for 1 h in the dark. […] Fluorescence was visualized using a DM4000B microscope and images were captured with a Leica TCS SP8 confocal microscope. […]\nTo mimic ischemic conditions, neurons at DIV7 were subjected to OGD. […] The supernatants were collected for subsequent CIRP quantification. […]\nMicroglia were exposed to 1, 10 100 μM concentrations of TCC or TC and PBS respectively for 24 h, and cell viability was measured. […] Cell viability was assessed using the Cell Counting Kit-8 (C0038, Beyotime) according to the manufacturer’s protocol. Absorbance at 450 nm was measured to determine cell viability."}, "[1]": {"test_system": "IL-6Rα/STAT3 pathway in microglia", "test": "IL-6Rα expression and p-STAT3 in CIRP-stimulated microglia", "type": "cell-based, mouse", "details": "CIRP stimulation with or without TCC", "description": "Brain tissues were fixed in paraformaldehyde, dehydrated, and sectioned at 30 µm using a microtome (CM1900UV, Leica, Germany). Sections were floated onto glass slides and left overnight at room temperature. For cultured cells, after discarding the medium, cells were washed twice with PBS, fixed with precooled 4 % PFA at 4 °C for 10 min, and washed three times with PBS (10 min each) on a shaker. Cells were permeabilized with 0.3 % Triton X-100 in PBS for 20 min, blocked with 5 % donkey serum for 1 h, and incubated overnight at 4 °C with primary antibodies (Iba-1, Rabbit polyclonal, Wako; NeuN, Millipore; GFAP, CST; MBP, Abcam; SMI32, Millipore). The next day, sections were brought to room temperature, washed three times with PBST (PBS + Tween-20), and incubated with secondary antibodies for 1 h in the dark. After three more PBST washes, samples were mounted with DAPI-containing medium and sealed. Fluorescence was visualized using a DM4000B microscope and images were captured with a Leica TCS SP8 confocal microscope. […]\nBrain tissue adjacent to the hemorrhagic striatum was homogenized in lysis buffer with protease inhibitors. […] The supernatant was collected for protein quantification using the BCA method. […]"}, "[2]": {"test_system": "Cirbp^−/− microglia vs WT microglia", "test": "TNF-α and IL-6 release, WT and Cirbp^−/− microglia with rmCIRP, ELISA", "type": "cell-based, mouse", "details": "CIRP treatment, 24 h, n = 3–4", "description": "ELISA was used to quantify CIRP, MD2, IL-6, and TNF-α concentrations in blood and cerebrospinal fluid samples. Samples were processed and stored under standardized conditions to preserve protein integrity. Each target protein was measured using commercial ELISA kits, following the manufacturer’s instructions: Mouse CIRBP ELISA Kit (CSB-EL005440MO, CUSABIO), Mouse TNF-α ELISA Kit (EK282, Lianke Bio), Mouse IL-6 ELISA Kit (CSB-E04639m, CUSABIO), and […].\nPrimary cortical neurons were isolated from embryonic day 16–18 (E16–E18) C57BL/6 mouse embryos as previously described, and cultured in Neurobasal medium supplemented with B27 and GlutaMAX (Gibco).Primary microglial cells were isolated from the cortices of neonatal (day 1) C57BL/6J mice. After disinfection with 75 % ethanol, the skin and skull were removed, and the brains were placed in ice-cold HBSS. The meninges were peeled off, the cortex was collected, and the hippocampus was discarded. Tissues were digested with 0.25 % trypsin at 37 °C for 12 min, centrifuged at 1200 rpm for 5 min, and resuspended in complete medium. […]\nRBCs were isolated via density gradient centrifugation and labeled with CFSE before being stereotactically injected into the right striatum. […] Cell viability was assessed using a Fixable Viability Dye, and flow cytometric analysis was subsequently performed. […]"}}, "data": [{"molecule": "B1", "values": [{"measurement": "interaction between CIRP and IL-6R", "setting": "IL-6R", "result": "confirmed a interaction between CIRP and IL-6R"}, {"measurement": "phosphorylation of STAT3", "setting": "STAT3", "result": "induced phosphorylation of the STAT3"}, {"measurement": "IL-6 release in culture supernatants", "setting": "microglia", "result": "significantly increased IL-6 levels"}, {"measurement": "neuronal morphology and axonal integrity", "setting": "neurons; 24-hour co-culture with microglial supernatant, immunofluorescence, n = 4–6", "result": "altered morphology and reduced axonal integrity"}, {"measurement": "neuronal viability", "setting": "neurons; microglial supernatant following CIRP with or without TCC, CCK-8, 24 h, n = 3", "result": "impaired neuronal viability"}, {"measurement": "IL-6Rα expression on microglia", "setting": "[1]; immunofluorescence", "result": "IL-6Rα expression on the microglial membrane significantly increased"}, {"measurement": "p-STAT3 level in microglia", "setting": "[1]; western blot, n = 6", "result": "increase in the p-STAT3/GAPDH ratio compared to the PBS control group"}, {"measurement": "IL-6 and TNF-α secretion, Cirbp^−/− vs WT microglia", "setting": "[2]", "result": "marked decrease in the secretion of both IL-6 and TNF-α levels"}]}]}
